According to the domain aggregation screens of Martell et al. (2025):

test: soluble fraction after stress (log2 fold change); higher = more stays soluble; pooled small domains, quantitative proteomics; details: stress: pH 4
How it was run: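 With high-throughput quantitative proteomics, pooled custom libraries of small protein domains were measured after pH 4 stress. Each domain's soluble amount after the stress gives a fold change taken as aggregation propensity. Higher log2 values mean more of the domain stayed soluble.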

Sequence | soluble fraction (log2)
HMHTDQVLVMTRAVGQGEIVRNTDVGLTSVAVDRAVTTIPASQLDEIVGRHALVDLSAGQLLGSHSVGA | -0.0551
HMHTNNALWAIADDMRARKDDGEFDTYREGYKWAANNIVKEGIHITAIKLEKAYHKAKSEGKV | 0.301
HMHVSIAENIRRIRTQHDMTQEEFGKVAAVSAMAVSQWENGRAVPRMGAVQRIADYFNISKGEVID | 0.121
HMHWDIAQADAKQEVMDSSDDKEAIERIQANMFKDPKDHDQEYANKILNDMIDEIKEKGLEAMQHKFAQE | ≥ 0.43
HMHYELTPDAEKQLSALGLTAELVERILEEANDRRPIPGTNRTVYSLHGYSVEFSNTNHKIVSVRKG | 0.343
HMIAAPFVVKDIRVDGVQPATGEAIISSLPVKVGQTATDADVSNVVRQLFSLNRFQNVQATREGNTLVIKV | 0.0417
HMIAGHLQIKNDYYYMVLSYTDSDGKRKQPWIPTGLPMKGNKKRAEKMLIETRQTYVPPVSSG | 0.203
HMIAIGDDARLDDAARFFRIAEDSYAAGDYRKSKENYIEARKLYAELGDHEKVNLINSKISAIDSIT | -0.0121
HMIAVIKPSATAEQKAGLVDWIRGQGIDVHISEGHDYTVLGLIGDTSKIDMDLIASLDIVDSVKRVA | -0.168
HMIDAHTTLLAKRLESKGFLALTDKSSAEEIYEEFGISKKAFKKALGALYKERLVRIGEDGVVWM | -0.721
HMIDDPTAVILRLVSEKQVIRRDDVVKALSVTPQKAYRLLKTMTTGGLLTRSGARRTTVYGLPDARER | 0.22
HMIDEKVQAADKSIEIGNLSPLKGLVTDDEMHELEKLFEKVMALKDFEVNDVGAGRKYIEAYVSFFKFAEG | -0.847
HMIDELNVGDIRFYLNRYGKEIQIEIIRIGDDGSVYARTMADNALFRVPEARLKNIGEKVPAEEVQRG | -0.348
HMIDFTHEDIERLWNAIVHYVPERQKSDMAIDFIKSLEDIGVEHDEIKASAEYDPKLEEAINTVY | -0.357
HMIDIDNLEKAAILLLSMGTEAAAKVMQKLSRDEVQRLISKMASLSGVSSIEAKWTLQQFFNQYREQSG | -0.832
HMIDLSELINKTGSAYTNLRPSGTAVIGDDRVDVVTEGTFVEKDRPVKVVAVEGQRVVVREVE | -0.206
HMIDMQIDTARFGTLGVDDDKIITFPKGLPGFEDERRFFLMDHSGSSKIKWLHSADNPGLALV | -0.541
HMIDVGSKIRSLRKSKNISISTLAKNSDLSTGLISQIERNMVVPSIVAMWKISKALDINIGYFFE | -0.109
HMIEDMQQYIKEIRQMVSGRLDMTRNLEDEEIRDTIAELVAEESRKQYMTLTEKREVIEGVFNSMR | -0.687
HMIEEIAVPEILGMQEEEAKAKIEGLGLVFNVTDRVKSNEYEKGEVMYQSVGPDDTTVKSGYPINVTISEG | -0.162
HMIEEIPYSQFMSMLEEGKIDKAEIYQDSIIFSTKPDEQGKAGYYSIAYMKDNVLADRLYDAGVEFTPII | -1.4
HMIEGEQVRLLRLLERQEGGMLPLGDKSPASDILLLTGMSKKTFKMAVGALYKAQMITMTPTSIKLVK | 0.386
HMIEGETPEQTMERVSKDPEIVQILQDPVMQGILAQARENPAALQDHMKNPEVYKKINMLIAAGVIRT | -0.113

Sequence | soluble fraction (log2)
HMIEGSSDWKPNMILDDGGDLTKIIHEEYQDLLDDIRGLSEETTTGVLRLYEMEKENSLAVPAINVND | -0.578
HMIEKGSDALEKELRKNNLSINEFLTNKNIDIILDELKLKDIDDLYVNIALGKYTPNQIIKIVNK | -0.61
HMIELEGVISSVLAGTMFKVKLRGNGHEVLAHISGKMRKKFIRLVIGDAVKIEMSPYDMDKARIVYRI | 0.269
HMIELTTDYKKRVVEALVSARENYSGSDSDFARKWSIDKTVYSRLKKGYQEGLLSVGKYIELGMELNVSSR | 0.0127
HMIENITIELNKKALALDFELNKDLPEGVLETIPTLVSLMVRFDPLTVSYHFLRDYIDALLESNLNVDL | -0.56
HMIENMQEYVRHIRAAVSDRLDLTREVEDDEIREVISQIVAEESRQNYLSLGERQTVIETVFNSMR | -2.17
HMIERLVEFVHTLRHSGVRVSMAEAMDAAEALRHTPITERQIFKTALQSVLVKEHQDIPAFDAAFERFFL | -0.728
HMIESLKGILHKKDPTIAIIDVGGVRLSVNITLSTYEKLEEINSSIELLTYFNVREDAMELYG | -0.377
HMIETIIGAEGKVLETIDNFNQKGVVALAGKEWTARSADASIIPEGAKVSVVEISGVKLIVTQN | -0.24
HMIETLGDATFKRLKAMILDGTLEPGTRLSEKKFADHLGVSRTPVREAIGQLVSEGLAKRSAGSAPVVSS | 0.069
HMIFSIIPGQIRLTKMEIADGYLVLYGFTPSKEIYNLHLNPALKSIFTSSETSFIPVSGGLKFMSTNKL | -0.442
HMIGAKVLVNGQLHRDSYGEGPGQTESNATRLVNYINMKGSHPYHVTTLDGGWRGWVTADSVQV | ≥ 0.43
HMIGDNNELFQKAQLTPREKEVALLLLQGETNSDIAKILYVGLSTVKKHISSIFEKTKVKSRTEFISKVR | 0.0668
HMIGDYALILNIKGGSDWYLGNRVELLFTDGTSKIVTTDKDYNAKKDMVPTQIVTYKVNDNGEYSLKALPT | -1.2
HMIGEKLKEIREKTGMNKKEFAQYLGLKYTTYNNYETEAREPASDFLILISTKFDVSIDYLLGLQ | -0.389
HMIGIEALAGEIDRVRQVLTGGGGLSDVQLFSQLKALNEIKAALGASPDPRAPELVQRVDQLLEAAFRS | -1.1
HMIGIGSDVPNKLKPAIYSFGLVAVGEKSVIPDGVQIGKNTAVSGVTSKEDYPDGVLESGETLIKA | 0.22
HMIGKLTSSKLAAIHKMKTNELLAHFTEKGFLNINDAGKYILTQQGKDVGAEFKTSQYGGYFLWPENIE | 0.0031
HMIGTPLSEWQKDAPEEITRDQIAELVILKFVTVEQLALASDAQLQRIGMGGVGLRERAKLYLNRK | -0.316
HMIGVNMEKSTVEKFANELNLPIDLLLKQLESAGIKKTSGAEELLEADKSALLNYLQIEHGA | -0.678
HMIGVQEFAMTYALTRRETEITQLIIQGKSNAMIAGELFISETTVKKHVSNIFEKTGVSRREELMVRVQAE | -1.45
HMIHANGLTDRQEMILEFIRSYISENNYPPSVREIGKGVGLASSASVHNNMKKLASLGFLNWDTD | -0.194
HMIHFDHPERSILDTMLYEKKGMTAQSARNRLAAYQFQGEDVFKPVSVLSGGELSRITLAIKNAMADK | 0.0479

Sequence | soluble fraction (log2)
HMIHQPNNETTRNLIAGVVKKSLSVWETRVQVDGVDVTTAKDNLAEVHINIRYRLRHNQTPASLGLRLNLG | -0.15
HMIHSEDMDDHILGHKLVDQYLNKHIEFDNIKKAWNYHTVAIKKFGRYPHRNKILKRESTIEEIDFLKQP | -0.298
HMIHSEEIQDHIFVKQLGEVFLRNHINYENIMKSWDDHTNVIKRFRRYPHRNKILNRESTIDEISFLKE | -0.0283
HMIIDTELMTRVMKFGFSQADASDLVAQHSDDLLRTAISRVEARAESKGMTPLETPAGYFRWTLQDLVRNP | -2.02
HMIIIMKKSATNSEVRKVIERAEKEGLTVQVNQLEKQQVLGLVGDTRLIQDVAFLRYEGVENVERI | 0.206
HMIILYTDEQQRIIDRLNEFIGEQPSQNEAAKLLGISAPILTNLRKGTYTGTVDKFMNKLAAYFNIKADLG | -0.372
HMIIMVNLYQIWDKEVQGLDSVGAKPEQIEARRQAIAAHFESKARQAGMSSKDIYATLDNFDTYSRQKTS | -1.3
HMIINFDAIRLTTELNKYNRHKAIPNSFFDGTFTILDVRDLYDSLSPKVQKIADTLIEQYNVDVKQ | -1.22
HMIISMKKGATPQEISHVRKLIEELGYKVHESQGSERMVFGAIGDERSKHRLTSLEAQPGVEKVIPILA | 0.168
HMIISMKKTATKEQIAHVRELIEGMGYKAHMSVGAERVIFGAIGDERGKERLVSLEAQPGVEKVIPIL | ≥ 0.43
HMIITLNIENLKRARENAGLTQTQAAQKIGVSDGTYKNYEQGKREPNGDKIVTIANAFGVTTDYLLGR | 0.22
HMIIVMRKGATEAQVNDIVERVRAAGFGVHLSQGEERTIIGAIGGDRAVLADLNLEAAPGVERVTPIS | -0.0491
HMIIYGLNPVKDFINLFPNKISTLFISKNKLSDSEMKSVVNINTVYVSDAELKRITGTTKHQSLAAEID | -0.721
HMIKILGSAYRHGLDDDDILRAWNYHIQEFFEGEDPEKIVRLGFDTHGRLLEIGGEIYPGGGEKIFHAM | -0.719
HMIKITLPDGSVKEYKKGITPAEVAQSISEGLARNVISASYNGKTIETVTPLTTDGSLVLYTWDSPEGK | -0.168
HMIKLTVRQQEILDLIARSIDQTGFPPTRAEIAAELGFKSVNAAEEHLQALARKGVIEMVPGISRGIRLVQ | -0.306
HMIKRNPLDEIEGVGPGRKKALLHAFGSAKGVSRASVVDLVKVEGVSQALAERIHDFFHPATR | 0.198
HMIKSIRELAEVITLWKNQGKTILIAEHRLSYLMDLADRVLYMKDGQIENDFSMADFRKIPPDEISRMGLR | -0.532
HMIKVAANESNRSDVLEIVRLFRVRVVDVNPESLTIEATGAEGKIDALLGLLEHYGVIELVRSGAVAVT | -1.1
HMILESREKYLGEVLEVLVEEEKEGEYFGYSQNYLRVKFKLEEKNLINQLINIKIKSIEDDILIGEKEN | -2.36
HMILKNVTSDLANKRLDKVASILFQTYSRTQIKKWILEGRVLVNGEISNPKDHVHENDEIEINPI | ≥ 0.43
HMIMISKSFEINEDNINKRLDIFLTENLDGLSRGIVQKYISLEQITVNKESSHKDYRLKLDDFIEVKIQAH | -1.06
